Columns and labels:
[1] = substrate: CC1=N[C@H](C(=O)O)CCN1; experiment: HPLC assay of 5-hydroxyectoine formation; assay type: biochemical, Sphingopyxis alaskensis; settings: apparent, with 2-oxoglutarate, Fe(II), O2, optimum pH 8.0, 40 °C and optimised salt, kcat per homodimer
Source text: (§1) HPLC assay of 5-hydroxyectoine formation on EctD from S. alaskensis

[2] = substrate: O=C(O)CCC(=O)C(=O)O; experiment: HPLC assay of 5-hydroxyectoine formation; assay type: biochemical, Sphingopyxis alaskensis; settings: apparent, co-substrate, with ectoine, Fe(II), O2, pH 8.0, 40 °C
Source text: as §1

[3] = molecular target: the molecule itself; experiment: SEC; 1 ml of protein at 5 mg/ml on a HiLoad 16/600 Superdex 200 pg column, 20 mM TES-buffer containing 150 NaCl; size against standards of 29, 66 and 150 kDa (Fig. S6)
[4] = substrate: CC1=N[C@H](C(=O)O)CCN1; experiment: HPLC assay of 5-hydroxyectoine formation; assay type: biochemical, Halomonas elongata; settings: apparent, with 2-oxoglutarate, Fe(II), O2, optimum pH 8.0, 32 °C and optimised salt, kcat per homodimer
Source text: (§2) HPLC assay of 5-hydroxyectoine formation on EctD from H. elongata

[5] = substrate: O=C(O)CCC(=O)C(=O)O; experiment: HPLC assay of 5-hydroxyectoine formation; assay type: biochemical, Halomonas elongata; settings: apparent, co-substrate, with ectoine, Fe(II), O2, pH 8.0, 32 °C
Source text: as §2

[6] = substrate: CC1=N[C@H](C(=O)O)CCN1; experiment: HPLC assay of 5-hydroxyectoine formation; assay type: biochemical, Stutzerimonas stutzeri; settings: apparent, with 2-oxoglutarate, Fe(II), O2, optimum pH 7.5, 35 °C and optimised salt, kcat per homodimer
Source text: (§3) HPLC assay of 5-hydroxyectoine formation on EctD from P. stutzeri

[7] = substrate: O=C(O)CCC(=O)C(=O)O; experiment: HPLC assay of 5-hydroxyectoine formation; assay type: biochemical, Stutzerimonas stutzeri; settings: apparent, co-substrate, with ectoine, Fe(II), O2, pH 7.5, 35 °C
Source text: as §3

[8] = substrate: CC1=N[C@H](C(=O)O)CCN1; experiment: HPLC assay of 5-hydroxyectoine formation; assay type: biochemical, Acidiphilium cryptum; settings: apparent, with 2-oxoglutarate, Fe(II), O2, optimum pH 8.0, 32 °C and optimised salt, kcat per homodimer
Source text: (§4) HPLC assay of 5-hydroxyectoine formation on EctD from A. cryptum

[9] = substrate: O=C(O)CCC(=O)C(=O)O; experiment: HPLC assay of 5-hydroxyectoine formation; assay type: biochemical, Acidiphilium cryptum; settings: apparent, co-substrate, with ectoine, Fe(II), O2, pH 8.0, 32 °C
Source text: as §4

[10] = substrate: CC1=N[C@H](C(=O)O)CCN1; experiment: HPLC assay of 5-hydroxyectoine formation; assay type: biochemical, Virgibacillus salexigens; settings: apparent, with 2-oxoglutarate, Fe(II), O2, TES buffer, optimum pH 7.5, 32 °C and optimised salt, kcat per homodimer
Source text: (§5) HPLC assay of 5-hydroxyectoine formation on EctD from V. salexigens (VsEctD)

[11] = substrate: O=C(O)CCC(=O)C(=O)O; experiment: HPLC assay of 5-hydroxyectoine formation; assay type: biochemical, Virgibacillus salexigens; settings: apparent, co-substrate, varied 0-50 mM, with ectoine, Fe(II), O2, pH 7.5, 32 °C
Source text: as §5

B1: Sphingopyxis alaskensis EctD protein (ectoine hydroxylase) (enzyme, UniProt Q1GNW5 1-306, looked up)
chain: MQDLYPSRQRADAEMRPRLDPVVHSEWTNDAPISARQAAAFDRDGYIVLEDIFSADEVAFLQKAAGNLLADPAALDADTIVTEPQSNEIRSIFEIHAQSPVMARLAADARLADVARFLLGDEVYIHQSRLNYKPGFKGREFYWHSDFETWHVEDGMPRMRALSMSVLLAENTPHNGPLMVIPGSHRTYLTCVGETPDDHYLSSLKKQEYGVPDEESLAELAHRHGIVAPTGKPGTVILFDCNLMHGSNGNITPFPRANAFLVYNAVSNRLEKPFGVEKPRPWFLARRGEPAALRVERGPLVETVPA
notes: Ectoine hydroxylase EctD of Sphingopyxis alaskensis; ectD gene amplified from chromosomal DNA; 35.29 kDa with the nine-residue Strep-tag II peptide; Contains about 0.87-0.96 mol iron per mol protein; also called EctD from S. alaskensis; S. alaskensis enzyme; not shown: Strep-tag II, C-terminal, kept
In the case of B1, the Km [1] is reported as 9.8 ± 0.5 mM, the kcat [1] is reported as 1.2 s⁻¹ and the kcat/Km [1] is reported as 120 M⁻¹ s⁻¹. For the same protein, the Km [2] was 2.7 ± 0.3 mM and the “stoichiometry N” value [3] was 2.

B2: EctD from H. elongata (Halomonas elongata DSM 2581) (protein)
chain: MSVQTSSNRPLPQANLHIATETPEADSRIRSAPRPGQDPYPTRLSEPLDLPWLNRREPVVKGEEADGPLSAAQLDTFERQGFIFEPDFLKGEELEALRHELNALLARDDFRGRDFAITEPQGNEIRSLFAVHYLSRVFSRLANDERLMGRARQILGGEPYVHQSRINYKPGFEGKGFNWHSDFETWHAEDGMPAMHAVSASIVLTDNHTFNGPLMLVPGSHRVFVPCLGETPEDHHRQSLKTQEFGVPSRQALRELIDRHGIEAPTGAAGGLLLFDCNTLHGSNANMSPDPRSNAFFVYNRRDNRCVEPYAASKRRPRFLAHEPDEAWSPDG
notes: homodimer
In the case of B2, the Km [4] is reported as 5.7 ± 0.6 mM, the kcat [4] is reported as 2.8 s⁻¹ and the kcat/Km [4] is reported as 490 M⁻¹ s⁻¹. For the same protein, the Km [5] was 4.8 ± 0.4 mM, the kcat [5] was 2.8 s⁻¹ and the kcat/Km [5] was 490 M⁻¹ s⁻¹.

B3: EctD from P. stutzeri (Stutzerimonas stutzeri A1501) (protein)
chain: MQADLYPSRQEDQPSWQERLDPVVYRSDLENAPIAAELVERFERDGYLVIPNLFSADEVALFRAELERMRQDPAVAGSGKTIKEPDSGAIRSVFAIHKDNELFARVAADERTAGIARFILGGDLYVHQSRMNFKPGFTGKEFYWHSDFETWHIEDGMPRMRCLSCSILLTDNEPHNGPLMLMPGSHKHYVRCVGATPENHYEKSLRKQEIGIPDQNSLSELASRFGIDCATGPAGSVVFFDCNTMHGSNGNITPSARSNLFYVYNHVDNAVQAPFCEQKPRPAFVAERENFKPLDIRPQQYL
notes: homodimer
Protein B3 has a Km [6] of 6.2 ± 0.4 mM, a kcat [6] of 8.9 s⁻¹ and a kcat/Km [6] of 1440 M⁻¹ s⁻¹. For the same protein, the Km [7] was 4.6 ± 0.5 mM.

B4: EctD from A. cryptum (Acidiphilium cryptum JF-5) (protein)
chain: MDDLYPSRREPTPSLLPRHDPVVHGRWAPGAPLSDEQTRFYDTNGYLVLENVFDPAEIALLQSGSMDLLANPAGLDRETIITERGSDEVRSIFAIHAQNELLGRLAADSRIAGVARFLLDDDVYIHQSRLNYKPGFDGKEFYWHSDFETWHVEDGMPRMRALSMSILLAENTANNGPLMVIPGSHRKYLTCVGETPENHYRSSLKKQEYGVPDREMLTALASDHGIVAPTGKAGTVVLFDCNTMHGSNGNITPFPRSNAFFVFNAKANSLVEPFGPKSRRPDFIADRAFTTVDIVKGPLVRRERAA
notes: homodimer
With B4 the Km [8] was 10.0 ± 0.6 mM, the kcat [8] was 3.4 s⁻¹ and the kcat/Km [8] was 340 M⁻¹ s⁻¹. For the same protein, the Km [9] was 4.1 ± 0.4 mM.

B5: EctD from V. salexigens (VsEctD) (Virgibacillus salexigens) (protein)
chain: MEDLYPSRQNNQPKILKRKDPVIYTDRSKDNQAPITKEQLDSYEKNGFLQIKNFFSEDEVIDMQKAIFELQDSIKDVASDKVIREPESNDIRSIFHVHQDDNYFQDVANDKRILDIVRHLLGSDVYVHQSRINYKPGFKGKEFDWHSDFETWHVEDGMPRMRAISVSIALSDNYSFNGPLMLIPGSHNYFVSCVGETPDNNYKESLKKQKLGVPDEESLRELTRIGGGISVPTGKAGSVTLFESNTMHGSTSNITPYPRNNLFMVYNSVKNRLVEPFSGGEKRPEYIAVREKQPVYSAVN
notes: homodimer
Protein B5 has a Km [10] of 5.9 ± 0.3 mM, a kcat [10] of 7.7 s⁻¹ and a kcat/Km [10] of 1310 M⁻¹ s⁻¹. For the same protein, the Km [11] was 4.9 ± 0.3 mM.

— PMC3979721, “Biochemical Properties of Ectoine Hydroxylases from Extremophiles and Their Wider Taxonomic Distribution among Microorganisms” (PLoS ONE, 2014)
